B1: 804 (protein, listed as Microbacterium trichothecenolyticum)
chain: MTETATSTHTDSVQHLVPLLDRLTLEQKAALVQGADFWTTVPLPEIGLRAMTLSDGPAGVRGPRWDEREPSLNLPSGSALAASWDVDLAYRYGAAAASEARRKGVDVVLGPTINLHRSPLGGRHFECFSEDPELTAELAAAYVRGLQDNDVAACPKHYVANDSETDRFTVDVRVDERALRENYLAPFERAVDAGAWTIMSAYNAVDGVTMTENDLLETPLNSEWGFDGVVISDWTAVRSLDSVPAAQDLAMPGPAPAWADLVAAIRDGRLNEADLDRKVLRVLLLAQRVGALGEREPREPAPLDGPAFAREAAIEGTVLLRNEGVLPLDASSLGRVAVIGQNAREARTQGGGSATVIPESVVSPLDAIRAAVPGADVGFEIGAVVQEGVAEIPLAHLTNPATGEAGIRVAFFDADGTELFAENRRSTALVWFGGDAPIAASATVVFETLYTPAETGDIELGFAGANPGKLYVDGQLVLDDSPVIEGTDLGAAFLNPPSITATVAVEAGRETAVRVEFSRESHGALSGALSATLGIAPERTDADELIARAVAEAAASDLAIVVVGTNSKVESEGYDRTSLDLPGRQDDLVRAVAATGTPTVVVVNAGSPVVLPWAEDVAAVVQGYFGGQEFGHAIADVLTGAAEPGGRLPTTWPAALADVPVTEVVPTDGRLEYREGLHIGYRAWLKADAVPAFAFGHGLGYTTWSWGAAQRTGDTVEVTLANTGHRRGKQVVQVYAERPESAVERPERWLVGFATVHAAPGETVTATIPVPARRLAHWAGEWTVESGAYTLRAGASVADLPLSLEWRIAS
B2: 891 (protein, listed as Pseudarthrobacter chlorophenolicus)
chain: MNPTLPAAATVPAVGSPDAEARIRDLAESLTLEQQVQLLTGADVWSTHALPAIGLSRVVMSDGPAGVRGEDFDERHDSVSLPSSSALSATWSVDLARRYGQVLGQEARRKGVHAVLGPTINLHRSPLGGRHFECMSEDPRLTATIAAGYVAGVQSMGVGATPKHYLANEAETDRFTSDSVVDERPLRELYLAAFEDAVTEARAWLVMSSYNSINGTTASENDLLETPLSTEWGFDGVVVSDWTGVRSVDAANAHQDLEMPGPVGHWGPKLLAAVGDGRVSRTAILDKVVRILRLAARVGSLDGVSPAVTELPAPLNAPAVAREVAVRGAVLVRNKDGLLPLDPAALGSVAVSGHNAEEARTQGGGSATVMPKQNISPLEGLREALPANVAISYHRGAKVAEGLQAFPRTSLHNPVSNVPGLRVTFLAADGTELSGEDRLASHLIWFGIGIPEGAAAIRMETDWTAPSAGTHHLGLGTVGRIRLSLRGQEVFNGDIEDETEVLGAALFDPPKTVHAIETEAGERVRIEALFELPADQAIPFTAILLGEETVVADPQAEIDAAVEAARTADVAVVVVGTSAAIESEGFDRKDLDLPGHQNRLVEAVAAANPRTVVVVNSGSPVLMPWLDKVGAVLLGWFGGQEFGRAIADILLGAEEPGGRLPTTWPAALEDVPVLDTTPMDGKVVYSEGIHVGYRAWLKQQAAGGAAPALPFGYGLGYTTFELCTPHASQAVPAGKDVVVHVPVRNTGTRAGREVVQVYLERPESAVERPVRWLAGYAGTHLAAGGTSSVEVRIPGRAFAHYDGGWQVEPGTFRILVGRHSADGFQALDIDVR
B3: 888 (protein)
chain: MTESVAHLRPLLDALTLEQKAALVQGADFWTTVPLPEIGLRAMTLSDGPSGVRGPRWDEREPSLNLPSGSALAASWDVDLAYRYGAAAASEARRKGVDVVLGPTINLHRSPLGGRHFECFSEDPELTAELAAAYVRGMQDNGVAATPKHYVANDSETDRFTVDVDVDDRALRELYLAPFERAVEAGAWSVMSAYNAVDGVTMTENDLLETPLNSEWGFDGVVVSDWTAVRSLDAVAAAQDLAMPGPAPAWADLLAAVRDGRVQEADLDRKVLRLLLLAERVGALEGSTALEPAPVDAEAFAREAGIEGTVLLRNTGALPLDVAAIRSIAVIGHNARDARTQGGGSATVLPERTVSPLDGLREALPEADLRYEIGAVVQEGVAEIPVAQLRNPETGEPGLRVRFLDEDGAELFSEDRRSTALVWFGGDAPVAASSRVVFETVFTPAETGEIQLGFAGANPGRLYVDDRLVLDDTPVIEGTDLGAAFLNPPSLTAGVSVEQDTPIRVRVEFTLARGGALAGALSATVGIAPEATDPEALIARAVEAAAAADVAVVVVGTNSKVESEGYDRIDLDLPGRQDDLVRAVAATGTPVVVVVNAGSPVVLPWADEVSAIVQGYFGGQEFGHALADVLTGAAEPGGRLPTTWPATLADVPVQDVTPQDGVLTYGEGIHVGYRAWLKDAATPAFPFGHGLGYTTWSWGAAHRHGDAVDVTVRNTGDRAGKQVVQVYAERGDSSVDRPVRWLVGFATVHAEPGETVTATVPVPGRRLAHWADGWVVEPGAYTLRAGASVDDLPLALEWTVAE
modifications: uncultured Microbacterium sp.
B4: 816 (protein)
chain: MTASTDHLRPLLEKLSLEQKAALVQGADFWTTVPLPEIGLRALTLSDGPAGVRGPRWDEREPSLNLPSGSALAASWDVDLAYRYGAAAASEARRKGVDVVLGPTINLHRSPLGGRHFECLSEDPELTAELGAAYVRGMQENGVAATPKHYVANDSETDRFTVDVEVDERTLREVYLAPFERAVEAGAWSVMSAYNSVDGVTMTENDLLENPLNSEWGFDGVVVSDWTAVRSLDAVAAAQDLAMPGPAPAWADLVDAVHDGRVDEADIDRKVLRILLLAERVGALEGADAVAPAPLDGPAFAKEAAVEGTVLLQNSGVLPLDLAGLTKVAIIGHNAKDARTQGGGSATVLPEKVVSPLDAIRAALPAAEVSYEIGAVVQEGVAEIPLASIENPVTGGPGVRVSFHGADGTELFAEDRRATALVWFGGDAPIGASRTIVLETRYTPAESGEIQLGFAGANPGRIFVDGELVLDDVPVIEGTDLGAAFLNPPSITSAVTVEAGRAVDLRAEFTRESRGALDGALSVTLGIAPERTDPDELIARAAAAASAAEVAVVVVGTNSKVESEGYDRVDLDLPGRQDDLVRAVAATGTPTVVVVNAGSPVVLPWAGEVAAIVQGYFGGQEFGHAIAEVLTGAAEPGGRLPTTWPAALADVPVADVTPVDGRLVYAEGLHIGYRAWLKDDVQPAFPFGHGLGYTTWSWGTAQRHDDTVEVTLANTGEREGKQVVQVYAERADSTVDRPARWLVGFAVVHAEPGRTVTAVVPVPARRLAHWAGEWVVEPGAYTLRVGSSVADLPLSVEWVQA
modifications: Microbacterium hydrocarbonoxydans
B5: 827 (protein, listed as Bionectria ochroleuca)
chain: MAPTDVNAVLSKLTLEEKISILAGADFWQTVPIPEKGVPALKTSDGPNGARGETFSGGVTAACFPAACSVASTFDVDIARRIGVALGEETLTKGARCLLGPTICGHRHPLGGRNFESFSEDPFLAGTLASQSVQGIQSTGVAATMKHYAVNEQETERLSVDEIVDERTMREIYLRPFERVVKEAKPAAVMTGYNQVNGSHCDSHEFLLKQVLRGEWGWDGLVMSDWGGVNSVAESLNAGLDLEMPGPTRWRKVDEVVAAVKAGKVSEETINDRAIHVLRFLERQNCFKDPTIPPEQAVNKPEHQALIREAGSKGIVLLKNNDNVLPLTKEKARGKKIALLGLAKESLAHGGGSASLNAHYKITPWDALQEAYKGENVEFTYAKGAHTLRQLPVITKNVVDVDGKPGFTWRSYHVGESQPYNTVGGHAKSEISLLDGLNMVNTSIELEGTFTASESATYYFTLSGLGPSSVAINGTVVFEQEDNCSDPMGFLLGGVASPLVKYEFESGKQYKILLKSTPPAPVEGVDLGILEGKVGVRLGNMSASEHDKDILTEAIDLAKAADYAIVFTGHDPSWETEGQDQHSFNLPKDGSQDRLVSGVAAVNQNTIVVNSTGVAVAMPWLDEIKSLVHTWFPGQEAGNSIADVLTGERNPEGHLTCTFPKRLEDCPAYGNFPGEYNGRQLTVKYAEGVFVGYRHFDRLPAEKVNFPFGFGLSYTTFGFSDFDVKPTAAGDEWTASVKVTNTGSVKGAIAVQLYVGNSKTSPENPVKSLVSFKKVTLAAGGSAVVELPAQGRDIAFWSQQEHKWVLEAGEYNFSVGKSAGDLVATATVQVGGKTYAP
B6: 881 (protein, listed as Treponema azotonutricium)
chain: MTSKEIIPQMTLEEKAALCSGRDFWSLKGIERFGLEAIMVTDGPHGLRKQGGDGDHLGLNQSVPATCFPAACATACSFDRSLLEEIGAAMGEECRKEKVAVLLGPAANIKRSPLCGRNFEYISEDPFLTGEIAAALIKGVQKLGVGTSLKHYAVNNQEKRRMTINAVVDERAFREIYLAGFEKAVREAKPWTLMCSYNKINGTYASENKKLLTDILRDEWAYQGLVMTDWGASNNRLEGIKAGLDLQMPGPDADNDKRIIEAVKSGALSIEDLDKVVARVVDLIIKAGEGDSIGFACDMEAHHLLARRAAAESAVLLKNDENILPLVPGKTLAVIGAFAISPRYQGAGSSKINPSHLDKAFDAIMRTGIKAEYAPGYSLEAGSGVNEKLIAEAAKLAGEKDSAVVFAGLPDEYESEGFDRASMDMSESHNKLIEAVAKANPNTVVVLQLGSPVALPWADKVKGILLLYLSGQAGGGAAADLLTGNACPGGKLAETWPLALEDNPSYGNFPGSTKTVEYRESIFAGYRWYDALEKEVRYPFGFGLSYTSFEYSDLKLGTSAEAKDNFKKGDALKVSFTVKNTGSREGSETAQLYIAPDASVLFRAKKELKGFEKLHLKPGESKTVTLILDERSFAYYNVQAKDWSLEGGLYRILIGASSRDIRLEGKLELTGDKRETAFAFLKGGRPVFDDASFKAIYGAELPPKERLPGEPFTVNTSVEEIKDTPIGKALFGMAVQGLEQAFGKEKSDLKVMMESMLMDMPLRGLGMMSGGRLTPPVIEALVEALNGKPNPIASGLLGMK

Assays:
Format in all cases: biochemical, Quillaja saponaria
[1] = Experiment 5-3: screening of additional glucosidases for deglycosylation with QS-18 in treated bark extract (80%) at pH 6 and 35 deg C; conditions: TBE 80% (QS-21 approx. 4 g/L), pH 6, 35 deg C; UV HPLC
Description: Experiment 5-1 was repeated, replacing CBE with Treated Bark Extract (TBE) at pH 6. TBE was prepared from CBE by PVPP treatment and concentration, to provide TBE with a QS-21 concentration of approximately 4 g/L. TBE was adjusted to pH 6 by dropwise addition of 2M NaOH with stirring.

[2] = Experiment 5-1: screening of additional glucosidases for deglycosylation with purified QS-18 (0.04 mg/ml) at pH 7.5 and 30 deg C; conditions: pH 7.5, 30 degrees C, 18 hours, LCMS/MS
Description: The 94 additional genes, together with positive control (DNA encoding SEQ ID No. 262) and negative control, were transformed, expressed, lysed and reacted in the same manner as described above for Experiment 4-1, except the reaction was incubated at 30 degrees C. for 18 hours.
Samples were analysed by LCMS/MS according to the procedure in Experiment 4-1.

[3] = Experiment 5-2: screening of additional glucosidases for deglycosylation with QS-18 in crude bark extract (80%) at pH 6 and 35 deg C; conditions: CBE 80%, pH 6, 35 deg C, 18 hours; UV HPLC
Description: A plate was lysed at pH 6 as described in Experiment 4-2. 40 uL of clarified lysate was transferred to a reaction plate
The pH of CBE was adjusted to pH 6 by dropwise addition of 2M NaOH with stirring. 160 uL of pH 6 CBE was added to each well of the reaction plate. The reaction plate was sealed and incubated at 35 deg C. with shaking for 18 hours.
The reaction plate was quenched by adding 200 uL of MeCN (2% acetic acid (AcOH), 1 mg/mL hexanophenone) to each well of the plates. The quenched reaction plate was re-sealed and incubated at 20 deg C. with shaking for 10 min. The reaction plate was then centrifuged (10 min, 4 degC).
200 uL was transferred from each well of the quenched plate to the corresponding wells of a fresh 96 well plate and sealed. The plate was analysed by UV HPLC with the method of Experiment 4-4.

Row | Molecule | Experiment 5-3 % conv [1] | Experiment 5-1 % conv [2] | Experiment 5-2 % conv [3]
1 | B1 | <0.5% | 83.2% | <0.5%
2 | B2 | <0.5% | 74.7% | <0.5%
3 | B3 | <0.5% | 78.0% | <0.5%
4 | B4 | <0.5% | 73.5% | <0.5%
5 | B5 | <0.5% | 69.2% | <0.5%
6 | B6 | <0.5% | 77.5% | <0.5%

— patent publication US20240026407A1, “MODIFICATION OF SAPONINS” (GLAXOSMITHKLINE BIOLOGICALS SA, priority 2020, published 2024)
